This is an account of results in the nanobody polyreactivity screen of Harvey et al. (2022).

A short description of this series: yeast display, Sf9 membrane polyspecificity reagent, FACS + sequencing; frameworks hold sequencing errors. The method in brief: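 Polyreactivity labels are assigned by the sorting gate from which each nanobody was recovered. The gates were low and high (top ~1%), set on anti-HA fluorescence for expression and streptavidin fluorescence for reagent binding. Before sorting, galactose-induced (36–48 hours) yeast display cells were stained for 1 hour at 4 °C with 10% biotinylated, detergent-solubilized Sf9 membrane reagent.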
For the sequence “QVQLVESGGGLVQAGGRLRLSCAASGRTFSNYAKGWYRQAPGKEREFVAGIRYNGGSTYYADSVKGRFTISRDNAKNTVYLQMKSLKPEDTAVYYCAARYSRSMDYWGQGTQVTVSS”, the “polyreactivity (PSR sort gate)” value is reported as “high polyreactivity”.
“QVQLVESGGGLVQAGGRLRLSCAASGRTFYGYAMGWYRQAPGKERELVASISRDGSTNYADSVNGRFTISRDNAKNTVYLQMHSLKPEDTAVYYCAADIWYYRYPIYYYSYDYWGPGTQVTVSS”: the “polyreactivity (PSR sort gate)” value is given as “low polyreactivity”.
On to “QVQLVESGGGLVQAGGRLRLSCAASGRTFYVYTMGWYRQAPGPERELVAAIPSGGSTNYADSVKGRFTISRDNAKKTVYLQMNSLKPEDTAVYYCAARDSTVFKRYYYWGQGTQVTVSS”, for which the “polyreactivity (PSR sort gate)” value was “high polyreactivity”.
As to “QVQLVESGGGLVQAGGRLRLSCAASGRTFYYNGMGWYRQAPGKERELVAAITSGGTTSYADSVKGRFTISRDNAKNTVYLQMNSLKPEDTAVYYCNADYWAVNYDYWGQGTQVTVSS”, the “polyreactivity (PSR sort gate)” value was “low polyreactivity”.
The same measure for “QVQLVESGGGLVQAGGRLRLSCAASGRTLGVYTMGWYRQAPGKERELVATISYNGGSTYYADSVKGRFTISRDNAKNTVYLQMNSLKPEDTAVYYCAKAYDTTLTYNYWGQGTQVTVSS”: “low polyreactivity”; for “QVQLVESGGGLVQAGGRLRLSCAASGSIFDRNAMGLYRQAPGKESELVATITWYGVSTYYADSVKGRFTISRDNAKNTVYLQMNSLKPEDTAVYYCNADYSYRHWYDPGHYGEAMGYWGQGTQVTVSS”: “low polyreactivity”.
Take “QVQLVESGGGLVQAGGRLRLSCAASGSIFFHYAMGWYRQAPGKERERVAAITWDGGSTYYADSVKGRFTISRDNAKNTVYLQMNSLKPEDTAVYYCNADQDLSTDEDEYWGQGTQVTVLS”: the “polyreactivity (PSR sort gate)” value is “low polyreactivity”.
In the case of “QVQLVESGGGLVQAGGRLRLSCAASGSIFGVYDMGWYRQAPGKERELVAVINSNGGSTYYADSVKGRFTISRDNAKNTVYLQMNSLKPEDTAVYYCAAERATVKFGYWGQGTQVTVSS”, the “polyreactivity (PSR sort gate)” value is on record as “low polyreactivity”.
The same measure for “QVQLVESGGGLVQAGGRLRLSCAASGSIFRRYAMGWYRQAPGKERELVAAISSTPITYYADSVKGRFTISRDNAKNTVYLQMNSLKPEDTAVYYCAAELLLSYYYGLEDDYWGQGTQVTVSS”: “low polyreactivity”.
For the sequence “QVQLVESGGGLVQAGGRLRLSCAASGSIFRSNVMGWYIQAPGKEREMVASITSGGITYADSVNGRFTISRDNAQNTVYLQMNSLKPEDTAVYYCDTVRRYAMSPYKGRYDYWGQGTQVTVSS”, the “polyreactivity (PSR sort gate)” value is given as “low polyreactivity”.
The same measure for “QVQLVESGGGLVQAGGRLRLSCAASGSIFSHNVMGWYRQAPGKEGELVAAITYRGGSTYYADSVKGRFTISRDNAKNTVYLQMNSLKPEDTAVYYCSALNEVSTYHGFDYWGQGTQVTVSS”: “low polyreactivity”; for “QVQLVESGGGLVQAGGRLRLSCAASGSIFSYYAMGWYRQAPGKERELVAAITANGGSTYYADSVKGRFTISRDNAKNTVYLQMNSLKPADTAVYYCAADYYWGYDCGQGTQVTVSS”: “low polyreactivity”.
As for “QVQLVESGGGLVQAGGRLRLSCAASGSIFTYNAMGWYIQAPGKERELVAAISASGGRTYYADSVKGRFTISRDNAKNTVYLQMNILKPEDTAVYYCAARIRVSGLRRFDYWGQGTQVTVSS”, the “polyreactivity (PSR sort gate)” value is reported as “high polyreactivity”.
With “QVQLVESGGGLVQAGGRLRLSCAASGSIFVIYGMGWYRQAPGKERELVAAISDRGGSTYYADSVKGRFTISRDNAKNTVYLQMNSLKPEDTAVYYCAADRQYRYATRYDYWGQGTQVTVSS”, the “polyreactivity (PSR sort gate)” value was “low polyreactivity”.
The same measure for “QVQLVESGGGLVQAGGRLRLSCAASGSIFYHYAMGWSRQAPGKERELVAAISQSGGGTYYADSVKGRFTISRDYAKNTVYLQMNSLKPEDTAVYYCAADRTGPYDYWGQGTQVTVSS”: “high polyreactivity”.
Take “QVQLVESGGGLVQAGGRLRLSCAASGSIIHYYTMGWSRQAPGKERELVAAINWSGTRTYYADSVKGRFTISRDNAKNTVYLQMNSLKPEDTAVYYCAAESYYPAGIRVYWGQGTQVTVSS”: the “polyreactivity (PSR sort gate)” value is on record as “high polyreactivity”.
